Results taken from the supplement of paper PMC9170038.

Tested on: K4 kissing-loop RNA reporter
Experiment: apparent KD of K4 kissing-loop reporter; higher = weaker reporter binding
Conditions: Eterna round: R107
Procedure: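 RNA-MaP round R107: designed RNA switches with theophylline, tryptophan, arginine or FMN aptamers are transcribed on-chip within common flanks. They are titrated with a labelled K4 kissing-loop RNA reporter in RNA-MaP buffer (100 mM Tris pH 7.5, 80 mM KCl, 4 mM MgCl2), without ligand or with the indicated ligand. Median apparent KD per design.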

[1] = input ligand: theophylline 20 uM
[2] = input ligand: tryptophan 2.4 mM
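Further: bound reporter read as fluorescence of individual clusters on recovered sequencing chips by microscopy, with normalized cluster intensities fitted with a binding model.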

| Sequence | apparent KD of K4 kissing-loop reporter (input ligand: FMN 200 uM) [nM] | apparent KD of K4 kissing-loop reporter (input ligand: arginine 13.2 mM) [nM] | apparent KD of K4 kissing-loop reporter (input ligand: none) [nM] | apparent KD of K4 kissing-loop reporter [1] [nM] | apparent KD of K4 kissing-loop reporter [2] [nM] |
| --- | --- | --- | --- | --- | --- |
| GGAUAGGACAGAGGAUAUCCAGUGAUGUUGGAGAAUUCUCCUUAAACAUGUCACAAAAGUGGCAUGGGAGAAGGCUGUCCUAUCG [Mod of Eli's FmnBX 29 v1] | 217 | 123 | 122 | 138 | 105 |
| GGAUAGGACAGAGGAUAUCUCUGAGGCAAGAAAACUUGUCUCUAAAGGGAUGACUCAGUGAUGUUGAGAGAAGGCUGUCCUAUCG [FmnBX 11 - #SwitchBubble #StaticStem] | 295 | 141 | 154 | 140 | 149 |
| GGAUAGGACAGAGGAUAUGGAGAGUCUACAAAGUAGGCUCAUAAUCCUUGAAUGGAAGUGAUGUUUCUAGAAGGCUGUCCUAUCG [FmnBX 18 - #SwitchBubble #StaticStem #Palindromic] | 758 | 135 | 143 | 148 | 136 |
| GGAUAGGACAGAGGAUAUGGAGCUAGGCAAGAAUAACUUGUCUAGCAAUCCAUGAGGAGUGAUGUUCCAGAAGGCUGUCCUAUCG [FmnBX 2 - #SwitchBubble #StraticStem #DoubleMagnetSystem] | 825 | 156 | 155 | 163 | 116 |
| GGAUAGGACAGAGGAUAUGGUAGUGAUGUUACCAAACUGGUUACUCUUGUCAGAAAACUGGCAUCUCUAGAAGGCUGUCCUAUCG [KL-XFMN-B9] | 389 | 156 | 149 | 144 | 168 |
| GGAUAGGACAGAGGAUAUGGUAGUGAUGUUACCAAACUGGUUAUCAAUGUUAGAAAAUUGACAAAUCCAGAAGGCUGUCCUAUCG [KL-XFMN-B14] | 198 | 60.7 | 66.4 | 54.8 | 62 |
| GGAUAGGACAGAGGAUAUGGUGCUAGGCAAGAAUAACUUGUCUAGCAAUCCAUGAGGAGUGAUGUUCCAGAAGGCUGUCCUAUCG [FmnBX 3 - #SwitchBubble #StraticStem #DoubleMagnetSystem] | 440 | 132 | 137 | 136 | 118 |
| GGAUAGGACAUAGGAUAUGGUAGUGAUGUUACCAAACUGGUUAAACAUGUCAGAAAACUGGCAUGACCAGAAGGGUGUCCUAUCG [FmnBX 27 U11+G75] | 73 | 54.2 | 61.8 | 45.9 | 64.3 |
| GGAUAGGAUAGAGGAUAUGGAUUAGGCAAGAAUAACUUGUCAUGUAAAUCCAUGAGGAGUGAUGUUCCAGAAGGCUGUCCUAUCG [MatMod 7 - Jieux - Exclusion - FMN B] | 349 | 116 | 114 | 112 | 90.7 |
| GGAUAGGAUAGAGGAUAUGGGCUAGGCAAGAAUAACUUGUCUAGUAAAUCCAUGAGGAGUGAUGUUCCAGAAGGCUGUCCUAUCG [MatMod 2 - Jieux - Exclusion - FMN B] | 286 | 166 | 324 | 182 | 247 |
| GGAUAGGAUAGAGGAUAUGGGCUAGGCAAGGAUAACUUGUCUAGCAAAUCCAUGAGGAGUGAUGUUCCAGAAGGCUGUCCUAUCG [MatMod 1 - Jieux - Exclusion - FMN B] | 733 | 160 | 162 | 148 | 158 |
| GGAUAGGAUAGAGGAUAUGGUAUAUGCAAGAAUAACUUAUCGUGUAAAUCCAUAGGGAGUGAUGUUCCAGAAGGCUGUCCUAUCG [MatMod 11 - Jieux - Exclusion - FMN B] | 921 | 244 | 308 | 324 | 229 |
| GGAUCCACCAGUGAUGUUGGAGAAAACUUCAAGGAUAUGACGAAAGUCAGAAGGUGGUAGACUGGACAAAGUCCGGUAGGAUCCA [FmnA10 U29+A78] | 604 | 395 | 490 | 570 | 528 |
| GGAUCCUAGGCGGCCGCCACUCCAUCGUACCGAAAGGUAUGAUACCGAGUGAUGUUCGGUUGGAGGAGGACCGGGCCUAGGAUCC [#2 Exclusion - Tryptophan B Attempt #3 (HarryS)] | 147 | 112 | 124 | 127 | 112 |
| GGAUUCGGCACGGCCGCCACUUCCGGUGGCUGGUGUCAUGGUGCGCGUGAGUGAUGUUUAUGUGGGAGGACCGGGUGUUGAGUCC [whbob_Ex_Tryp_B_w44] | 1020 | 433 | 834 | 1000 | 502 |
| GGCACGGGCUCGGCCGCCACUCCCGCGGGUCGUAAGGUCCGCUACUGAGUGAUGUUCGGUUGGAGGAGGACCGGGAGCCCGUGCC [#2 Exclusion - Tryptophan B Attempt #20 (HarryS)] | 149 | 220 | 143 | 145 | 119 |

| Sequence | apparent KD of K4 kissing-loop reporter (input ligand: FMN 200 uM) [nM] | apparent KD of K4 kissing-loop reporter (input ligand: arginine 13.2 mM) [nM] | apparent KD of K4 kissing-loop reporter (input ligand: none) [nM] | apparent KD of K4 kissing-loop reporter [1] [nM] | apparent KD of K4 kissing-loop reporter [2] [nM] |
| --- | --- | --- | --- | --- | --- |
| GGCAGAGCGCGAAGGAGCGCCCUGACAGGUUGCUGCCGUGGGCAGUGAUGUUGCUCAGUCCGGCAGGUAGGUCGCGUGCUCUGCC | 167 | 115 | 225 | 116 | 148 |
| GGCAGUGAUGUUGCCAGUGGCGGAUGCGAAGGAGCGCGGUGAGACGCAGGUAGGUCGCGCAUUGAAAUUGCUGUCACUAGGAUGC [whbob_Ex_Arginine_A_2t129] | 272 | 262 | 267 | 313 | 212 |
| GGCAGUGAUGUUGCCUAAGCAACGCAUGCAGAGGAUAUUCGUUCGGGAAGAAGGCUGCAGCGUUCUCUCGUCAGUGAUGUUGGCG [Same State FMN A GF 24] | 140 | 115 | 127 | 130 | 114 |
| GGCAUGGUGGCGCGGCUGCCAUGCGCUUGGGAGGAUAUGUUUCGUGACAGAAGGCCCAGUGAUGUUGGGUCUGUUCAAAAGGACU [Onrabe] | 447 | 149 | 133 | 137 | 113 |
| GGCCACGGGCGAGGAUAUGGGCAUGAUUCAUCCUGGAGUGAUGUUCCAGGUCCUACGUUUCGAGCACCAGAAGGCGUUUGUUGCU [Biazaqure] | 166 | 521 | 646 | 489 | 524 |
| GGCCCGGGCGCGGCCGCCACUCCCUCGUACCGCAAGGUAUGAUACCGAGUGAUGUUCGGUUGGAGGAGGACCGGGCGCCCGGGCC [#2 Exclusion - Tryptophan B Attempt #5 (HarryS)] | 122 | 101 | 108 | 77.4 | 91.1 |
| GGCCUGGUCGCCUAGUGAUUGUCGGUAGGACGAGGACCGGUACGGCCGCCACUCGGCUUACCCAGUGAUGUUGGGUAUCCGUGGC [Onercelama] | 194 | 136 | 177 | 176 | 235 |
| GGCGCUGCCUGUGCCGCCCUCCUCGUCCCUCGAGGACCGGUACGGCCGCCACUCGAGUGAUGUUCGGGUAGCCCUCCCUGCCAGC [BDazzled - #23 Exc. Tryptophan A] | 585 | 407 | 567 | 511 | 340 |
| GGCGGCCGCGCGCAAGCGCGGCCGGCCGAUACCAGCGCGCCGGCGCGCCCUUGGCAGCGGCGCCGAGUGAUGUUCGGCCUGCCGG [#2 Same State - Theophylline A Attempt #9 (HarryS)] | 477 | 267 | 449 | 374 | 401 |
| GGCGGGUGCCCGUAAGGGUGCCCGGCCGAUACCAGCGCGACGGCGCGCCCUUGGCAGCGGCGCCGAGUGAUGUUCGGCCUGCCGU [#2 Same State - Theophylline A Attempt #24 (HarryS)] | 92.7 | 105 | 90.6 | 84.5 | 151 |
| GGCUUGCCAGUGAUGUUGGCAUAUUCUGAAGGAGCGCGUGAAAACGCAGGUAGGUCGCAGAACCUUGCCAACUAUUUUAGUUGCC [Ex Arginine A K4 26] | 242 | 210 | 237 | 334 | 210 |
| GGGAAACCCAAUCAUACGGCGGUUCUUAGUCGAGGACCGGUACGGCCGCCACUCGAACUUGCUAGUGAUGUUAGCUUAUCGAGCU | 221 | 296 | 253 | 265 | 162 |
| GGGAGUAGUGCGGCCGCCACUGAGAAAGAAGAAGAAUAUAGUGAUGUUAUAUAGGAAAUAAAGAACAGGACCGGGCAUUAGAUUU [SSTRyptB.N] | 269 | 216 | 244 | 210 | 149 |
| GGGAGUAGUGCGGCCGCCACUGAGAAAGAAGAAGAAUAUAGUGAUGUUAUAUAGGAAAUAAAGAAUAGGACCGGGCAUUAGAUUU [SSTRyptB.M] | 259 | 211 | 235 | 181 | 211 |
| GGGAGUAGUGCGGCCGCCACUGAGAAAGUAGAAGAAUAUAGUGAUGUUAUAUAGGAAUAAAAGAACAGGACCGGGCAUUAGAUUU [SSTRyptB.U] | 230 | 214 | 230 | 203 | 174 |
